# B1: PylRS^AF: mutant M. mazei pyrrolysyl tRNA synthetase comprising amino acid substitutions Y306A and Y384F, SEQ ID NO:2 (protein)
# chain: MDKKPLNTLISATGLWMSRTGTIHKIKHHEVSRSKIYIEMACGDHLVVNNSRSSRTARALRHHKYRKTCKRCRVSDEDLNKFLTKANEDQTSVKVKVVSAPTRTKKAMPKSVARAPKPLENTEAAQAQPSGSKFSPAIPVSTQESVSVPASVSTSISSISTGATASALVKGNTNPITSMSAPVQASAPALTKSQTDRLEVLLNPKDEISLNSGKPFRELESELLSRRKKDLQQIYAEERENYLGKLEREITRFFVDRGFLEIKSPILIPLEYIERMGIDNDTELSKQIFRVDKNFCLRPMLAPNLANYLRKLDRALPDPIKIFEIGPCYRKESDGKEHLEEFTMLNFCQMGSGCTRENLESIITDFLNHLGIDFKIVGDSCMVFGDTLDVMHGDLELSSAVVGPIPLDREWGIDKPWIGAGFGLERLLKVKHDFKNIKRAARSESYYNGISTNL
# modifications: Methanosarcina mazei PylRS Y306A, Y384F mutant; MUTAGEN 306 Y306A mutation; MUTAGEN 384 Y384F mutation
# Tested on: mCherry-GFP^Y39TAG amber suppression reporter
# Experiment: Amber suppression in baculovirus-transduced Sf21 insect cells, flow cytometry
# Type: cell-based, Spodoptera frugiperda
# Protocol: Following standard protocols, insect cells of line Sf21 were cultured in a protein-free, serum-free standard culture medium for Spodoptera frugiperda cells (Sf-900™ III SFM) at 27° C. shaking at 180 rpm. The Sf21 cells were split every day to a density of 0.6×10^6 cells/ml or every third day to a density of 0.3×10^6 cells/ml.
# Baculovirus shuttle vector (Bacmid) DNA containing an expression cassette encoding tRNA^Pyl, mCherry-GFP^Y39TAG and either PylRS^AF or NES-PylRS^AF was prepared using standard cloning and recombination procedures.
# For transfection 3 ml/well of 0.3×10^6 Sf21 cells/ml were seeded in a 6-well cell culture multidish (Nunclon Delta Surface, Thermo scientific) and transfected with Bacmid DNA using a nonliposomal transfection reagent (FuGENE®HD Transfection Reagent, Promega) following the manufacturer's instructions. V0-virus was harvested 70 h post transfection and the V1-generation was started. Therefor, 25 ml Sf21 cells at 0.6×10^6 cells/ml were transfected with 3 ml of the Vo-virus. After cell proliferation stopped, the cultures were kept for another 48-60 h at 27° C. shaking at 180 rpm. The transfected cells were harvested by centrifugation (500 rpm, 10 min) and the supernatant (i.e., the V1-Virus) was stored at 4° C.
# 5-25 ml Sf21 cells at 0.6×10^6 cells/ml were transduced with V1-virus prepared by method (I) at a ratio of 100:1 vol/vol (cells:virus). One day afterwards, different amounts of UAA 1 (0-1 mM final concentration) was added to the cultures. After three days of culture, the cells were harvested by centrifugation (500 rpm, 10 min), cooled down to 4° C., resuspended in 2 ml sterile 1×PBS, filtered through a cell strainer (Falcon, 70 μm, Fisher Scientific) and kept on ice until analysis. Data for 500,000 cells of each sample was acquired and analyzed using a LSRFortessa SORP Cell Analyzer (Becton, Dickinson and Company) and the FlowJo software (FlowJo Enterprise). Cells were gated first by cell type (using FSC-A×SSC-A parameters) and then by single cell (FSC-A×SSC-W). GFP fluorescence was acquired in the 488-530/30 channel and mCherry fluorescence in the 561-610/20 channel.
# Sf21 cells were transduced with Bacmid DNA encoding tRNA^Pyl, mCherry-GFP^Y39TAG, and either PylRS^AF or NES-PylRS^AF, cultured with different concentrations (0, 10, 50, 100, 250, 500 or 1000 μM) of UAA 1 (BOC) and analyzed using methods (I) and (J) described herein.
# mCherry fluorescence of the cells indicated successful transduction with Bacmid DNA. GFP fluorescence of the cells indicated successful suppression of the amber stop codon encoding amino acid position 39 of the GFP^Y39TAG reporter gene by incorporation of UAA 1 at said position.
molecule,measurement,setting,value
B1,Cells showing both mCherry and GFP fluorescence,"Sf21, UAA 1 conc. 0 μM",1.4%
same,Cells showing only mCherry fluorescence,"Sf21, UAA 1 conc. 0 μM",94.6%
same,Cells showing both mCherry and GFP fluorescence,"Sf21, UAA 1 conc. 10 μM",20.1%
same,Cells showing only mCherry fluorescence,"Sf21, UAA 1 conc. 10 μM",75.8%
same,Cells showing both mCherry and GFP fluorescence,"Sf21, UAA 1 conc. 50 μM",56.2%
same,Cells showing only mCherry fluorescence,"Sf21, UAA 1 conc. 50 μM",39.3%
same,Cells showing both mCherry and GFP fluorescence,"Sf21, UAA 1 conc. 100 μM",67.1%
same,Cells showing only mCherry fluorescence,"Sf21, UAA 1 conc. 100 μM",25.9%
same,Cells showing both mCherry and GFP fluorescence,"Sf21, UAA 1 conc. 250 μM",76.5%
same,Cells showing only mCherry fluorescence,"Sf21, UAA 1 conc. 250 μM",13.9%
same,Cells showing both mCherry and GFP fluorescence,"Sf21, UAA 1 conc. 500 μM",81.6%
same,Cells showing only mCherry fluorescence,"Sf21, UAA 1 conc. 500 μM",9.1%
same,Cells showing both mCherry and GFP fluorescence,"Sf21, UAA 1 conc. 1000 μM",85.8%
same,Cells showing only mCherry fluorescence,"Sf21, UAA 1 conc. 1000 μM",5.7%

# From patent US12723243B2, “Archaeal pyrrolysyl tRNA synthetases for orthogonal use” (European Molecular Biology Laboratory, priority 2016, dated 2026)
